The experiment has as its target thrombin. Put plainly: cell-based or functional assay.

GST (Glutathion-S-transferase) expressed from pGEX-4T-3, sequence (P08515 whole entry): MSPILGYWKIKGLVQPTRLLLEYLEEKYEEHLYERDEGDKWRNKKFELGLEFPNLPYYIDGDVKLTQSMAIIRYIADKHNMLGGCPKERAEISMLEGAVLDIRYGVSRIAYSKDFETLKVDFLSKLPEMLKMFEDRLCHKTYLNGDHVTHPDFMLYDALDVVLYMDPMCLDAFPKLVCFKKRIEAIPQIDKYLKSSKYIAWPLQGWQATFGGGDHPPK

Regarding “GST (Glutathion-S-transferase) expressed from pGEX-4T-3 (from UniProt P08515 1-218)”, the thrombin activity, delta Abs (405 nm)/2 min, Test 1; sample A: supernatant + water (Abs (405 nm)/2 min) came to 0.087; the thrombin activity, delta Abs (405 nm)/2 min, Test 1; sample B: pH 2.0 (Abs (405 nm)/2 min) stood at 0.082; the thrombin activity, delta Abs (405 nm)/2 min, Test 1; sample C: pH 2.0 + 2 ug chymosin (Abs (405 nm)/2 min) is 0.063; the thrombin activity, delta Abs (405 nm)/2 min, Test 1; sample D: pH 4.5 (Abs (405 nm)/2 min) is 0.087. Besides, the thrombin activity, delta Abs (405 nm)/2 min, Test 1; sample E: pH 4.5 + 2 ug chymosin (Abs (405 nm)/2 min) was found to be 0.087; the thrombin activity, delta Abs (405 nm)/2 min, Test 2; sample A: supernatant + water (Abs (405 nm)/2 min) turned out to be 0.082; the thrombin activity, delta Abs (405 nm)/2 min, Test 2; sample B: pH 2.0 (Abs (405 nm)/2 min) came out at 0.073; the thrombin activity, delta Abs (405 nm)/2 min, Test 2; sample C: pH 2.0 + 2 ug chymosin (Abs (405 nm)/2 min) came to 0.073. In addition, the thrombin activity, delta Abs (405 nm)/2 min, Test 2; sample D: pH 4.5 (Abs (405 nm)/2 min) was found to be 0.086 and the thrombin activity, delta Abs (405 nm)/2 min, Test 2; sample E: pH 4.5 + 2 ug chymosin (Abs (405 nm)/2 min) is 0.087.

“Hirudin 2 ug (positive control of Table 1)” had a thrombin activity, delta Abs (405 nm)/2 min, Test 1; Hirudin 2 ug (Abs (405 nm)/2 min) of 0.0001 and a thrombin activity, delta Abs (405 nm)/2 min, Test 2; Hirudin 2 ug (Abs (405 nm)/2 min) of 0.0001.

For “cleavage product of GST-Pro-Hirudin treated at pH 2.0 with 2 ug chymosin”, the thrombin activity, delta Abs (405 nm)/2 min, Test 1; sample C: pH 2.0 + 2 ug chymosin (Abs (405 nm)/2 min) amounted to 0.066 and the thrombin activity, delta Abs (405 nm)/2 min, Test 2; sample C: pH 2.0 + 2 ug chymosin (Abs (405 nm)/2 min) was 0.07.

Take “hirudin released from GST-Pro-Hirudin by treatment at pH 4.5 with 2 ug chymosin (from UniProt P01050 1-65)”: the thrombin activity, delta Abs (405 nm)/2 min, Test 1; sample E: pH 4.5 + 2 ug chymosin (Abs (405 nm)/2 min) is 0.0002 and the thrombin activity, delta Abs (405 nm)/2 min, Test 2; sample E: pH 4.5 + 2 ug chymosin (Abs (405 nm)/2 min) came out at 0.0001.

These data come from US20030166162A1.
